Experimental data published in patent US6416987B1, “Mutants of thymidylate synthase and uses thereof” (Sloan Kettering Institute for Cancer Research, priority 1997, dated 2002).
Where a chain is given by its changes, count along the chain named. Numbers in names are those of the source. Entries after “also recorded” stand apart in the source; their conditions may differ.

B1: D49G: human TS mutant Asp49→Gly (protein)
chain: MPVAGSELPRRPLPPAAQERDAEPRPPHGELQYLGQIQHILRCGVRKDGRTGTGTLSVFGMQARYSLRDEFPLLTTKRVFWKGVLEELLWFIKGSTNAKELSSKGVKIWDANGSRDFLDSLGFSTREEGDLGPVYGFQWRHFGAEYRDMESDYSGQGVDQLQRVIDTIKTNPDDRRIIMCAWNPRDLPLMALPPCHALCQFYVVNSELSCQLYQRSGDMGLGVPFNIASYALLTYMIAHITGLKPGDFIHTLGDAHIYLNHIEPLKIQLQREPRPFPKLRILRKVGKIDDFKAEDFQIEGYNPHPTIKMEMAV
B2: wt: wild-type human thymidylate synthase (recombinant, Pro2 to Leu2 codon modification) (protein, listed as Homo sapiens)
chain: B1 chain with G49D
modifications: Wild type human thymidylate synthase amino acid sequence (Genbank Accession number NP001062)
B3: I108A: human TS mutant Ile108→Ala (protein)
chain: B1 chain with G49D, I108A
B4: F225W: human TS mutant Phe225→Trp (protein)
chain: B1 chain with G49D, F225W
B5: F59L: human TS mutant Phe59→Leu (protein)
chain: B1 chain with G49D, F59L
B6: Q214R: human TS mutant Gln214→Arg (protein)
chain: B1 chain with G49D, Q214R
B7: L221R: human TS mutant Leu221→Arg (protein)
chain: B1 chain with G49D, L221R
B8: pcDNA3hTS272: human TS mutant Ile108→Asn (protein, UniProt P04818 2-313, looked up, variant I108N)
Thymidylate synthase: PVAGSELPRRPLPPAAQERDAEPRPPHGELQYLGQIQHILRCGVRKDDRTGTGTLSVFGMQARYSLRDEFPLLTTKRVFWKGVLEELLWFIKGSTNAKELSSKGVKNWDANGSRDFLDSLGFSTREEGDLGPVYGFQWRHFGAEYRDMESDYSGQGVDQLQRVIDTIKTNPDDRRIIMCAWNPRDLPLMALPPCHALCQFYVVNSELSCQLYQRSGDMGLGVPFNIASYALLTYMIAHITGLKPGDFIHTLGDAHIYLNHIEPLKIQLQREPRPFPKLRILRKVEKIDDFKAEDFQIEGYNPHPTIKMEMAV
B9: pcDNA3hTS270: human TS mutant Ile108→Gly (protein, UniProt P04818 2-313, looked up, variant I108G)
Thymidylate synthase: B8 Thymidylate synthase with N107G
B10: pcDNA3hTS271: human TS mutant Ile108→Glu (protein, UniProt P04818 2-313, looked up, variant I108E)
Thymidylate synthase: B8 Thymidylate synthase with N107E
B11: Tyr33 to His33: literature human TS mutant found in a human colon tumor cell line (protein, UniProt P04818 2-313, looked up, variant Y33H)
Thymidylate synthase: B8 Thymidylate synthase with Y32H, N107I

System: Mouse TS-negative cells (FSthy21)
Experiment: Rescue of TS-negative cells by transfection of human TS cDNAs
Type: cell-based
Settings: selective medium lacking thymidine
From the text: Mouse TS-negative cells (FSthy21) were transfected with a plasmid (pcDNA3hTS*) encoding wild-type or a various mutant human TS enzyme by standard DOTAP transfection procedures. The host cells are deficient in TS, which are unable to survive without exogenous thymidine. […] In contrast, cells were unable to survive with transfection of other 11 human TS variants. For each surviving transfectant, at least 12 individual clones were isolated by soft agar or limiting dilution in 96-well plates. Those clones were expanded to cell lines by growth in normal media. Three cell clones for each transfectant were randomly selected for drug sensitivity assay.

Row | Molecule | TS catalytic function / complementation of growth of TS-negative cells
1 | B1 | able to complement growth; also recorded: retain TS catalytic function; also recorded: able to allow growth
2 | B2 | able to complement growth
3 | B3 | able to complement growth; also recorded: functional
4 | B4 | able to complement growth; also recorded: active enzymes

Same assay, conditions: selective medium without thymidine

Row | Molecule | FM3A TS cells surviving by transfection
5 | B1 | yes
6 | B5 | no
7 | B6 | no
8 | B2 | yes
9 | B3 | yes
10 | B7 | no
11 | B4 | yes
12 | B8 | no
13 | B9 | no
14 | B10 | no

System: human thymidylate synthase
Experiment: Kinetic parameters of wild-type and mutant human thymidylate synthases
Type: biochemical
Settings: not given
Procedure: TS activity was monitored spectrophotometrically at 340 nm as described (Wahba et al., 1961). Activity was determined at 30° C. The assay mixture contained 50 mM Tris.HCl, pH 7.4, 25 mM MgCl2, 6.5 mM formadehyde, 1 mM EDTA, 75 mM BME and 100 μM dUMP, CH2H4folate (100 μM) was added to initiate the reaction. Black cuvettes lacked CH2H4folate. A unit of activity is defined as the amount of enzyme required to convert 1 μmol of dUMP to dTMP/minutes at 30° C. Protein was determined from OD280=0.87×10^5 M^−1 cm^−1, which is equivalent to 1.43 OD280/mg of protein.
Michaelis constants (Km's) for CH2H4folate and dUMP were determined from initial velocity measurements, which were obtained by measuring the change in OD340 with a Shimadzu UV-2101 PC spectrophotometer. […] Steady-state kinetic parameters were subsequently obtained by a nonlinear least-squares fit of the data to the Michaelis-Menten equation using a computer program. The kcats were calculated by dividing Vmax by the estimated concentration of enzyme used in the reaction.

Row | Molecule | increase of Km for CH2H4folate over wild-type [fold] | increase of Km for dUMP over wild-type [fold] | kcat [s⁻¹] | kcat lower than wild-type TS [fold]
15 | B1 | 4 | 4 | 0.16 | 3
16 | B2 |  |  | 0.68 | 
17 | B3 | 22 | 4 | 0.22 | 3
18 | B4 | 4 |  | 2.3 | 

Same assay, conditions: CH2H4folate 3 mM; read-out: Km (dUMP)

Row | Molecule | Km [µM]
19 | B1 | 12
20 | B2 | 4.4
21 | B3 | 15
22 | B4 | 3.6

Same assay, conditions: dUMP fixed at 200 μM; read-out: Km (CH2H4folate)

Row | Molecule | Km [µM]
23 | B1 | 122
24 | B2 | 32.4
25 | B3 | 746
26 | B4 | 165

Molecular target: human TS (Homo sapiens, UniProt P04818, Y33H)
Experiment: not given
Settings: vs wild-type TS; cited from earlier work

Sequence of human TS (P04818 whole entry Y33H): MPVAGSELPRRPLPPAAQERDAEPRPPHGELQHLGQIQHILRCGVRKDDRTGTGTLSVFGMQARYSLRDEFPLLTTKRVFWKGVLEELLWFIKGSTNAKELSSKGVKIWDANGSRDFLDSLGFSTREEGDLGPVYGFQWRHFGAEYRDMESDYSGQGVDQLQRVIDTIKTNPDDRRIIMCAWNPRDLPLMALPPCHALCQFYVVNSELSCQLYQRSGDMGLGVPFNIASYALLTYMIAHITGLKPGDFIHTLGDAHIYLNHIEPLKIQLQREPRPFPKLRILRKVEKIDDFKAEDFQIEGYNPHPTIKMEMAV

Row | Molecule | drop in kcat [fold]
27 | B11 | 8
